Test results from patent US20050227306A1, “Fluorescence polarization assay to detect protease cleavage” (priority 2003, published 2005).

Legend:
Format in all cases: biochemical, E. coli
[1] = tested on: substrate 25-F (His6-tetraCys-X-MBP); assay: Fluorescence anisotropy proteolysis assay with substrate 25-F; conditions: initial rate by fluorescence anisotropy, normalized to the rate of the protease with its preferred cognate substrate
Description: (§1) All protease substrates were expressed in E. coli Rosetta pLacI Rare to provide compensation for rare codons (see Kirienko et al. (2004) Biochemistry (Mosc) 69:527-535; available commercially from Novagen, a wholly-owned subsidiary of EMD Biosciences, Inc., Madison, Wis.). The expression was done in 2-L PET bottles (Millard et al. (2003) Protein Expr. Purif. 29:311-320). The protein purification followed typical IMAC purification procedures (see Sambrook & Russell, supra) including elution in an imidazole gradient from 0-350 mM. After SDS-PAGE analysis, appropriate fractions were pooled and desalted into 20 mM phosphate, pH 7.5, containing 100 mM NaCl and 0.3 mM TCEP. […]
(§2) Protease assays were conducted using a combination of 20 μM unlabeled and 40 nM labeled protease substrates unless noted otherwise. […] This decreased the amount of time between mixing and measurement to less than three minutes and allowed the fluorescence anisotropy measured at the first time point to closely approximate the anisotropy of the intact fusion protein. […]
(§3) Fluorescence anisotropy was measured using a Tecan 384 Ultra plate spectrofluorimeter. Excitation was at 485 nm (25 nm bandpass) and emission was measured at 525 nm (20 nm bandpass). […] See J. Lakowicz, “Principles of fluorescence spectroscopy,” Kluwer Academic/Plenum Publishers, New York, 1999. […]

[2] = tested on: substrate 21-F (His6-tetraCys-X-MBP); assay: SDS-PAGE analysis of proteolysis of substrate 21-F; conditions: incubated 16 h (overnight)
Method: FIG. 22 is a photograph of a gel depicting SDS-PAGE analysis of protease substrates incubated with Factor Xa and TEV protease for 16 h. Lane M, molecular weight standards of 31 and 45 kDa. Lanes 1-5, Factor Xa with substrates 21-F, 22-F, 23-F, 24-F and 25-F, respectively. Lanes 6-10, trypsin with substrates 21-F, 22-F, 23-F, 24-F and 25-F, respectively. Lanes 11-14, TEV protease with substrates 21-F, 22-F, 23-F and 24-F, respectively.
The intensity of protein bands in SDS-PAGE gels was determined using Image J-brand software, version 1.30. This is a public domain program that can be obtained from the National Institutes of Health (Bethesda, Md.).
SDS-PAGE analysis with Coomassie staining was performed to further evaluate the predicted low rates of substrate dependent non-specific proteolysis.

[3] = tested on: substrate 26-F (His6-tetraCys-X-MBP); assay: Fluorescence anisotropy proteolysis assay with substrate 26-F; conditions: for Relative rate of reaction, substrate 26F: initial rate by fluorescence anisotropy, normalized to the rate of the protease with its preferred cognate substrate
Description: as §1, with “TCEP. Proteins were concentrated to a final concentration of 300-600 μM using centrifugal concentrators. Glycerol (50% v/v) was added to all protease substrates except 26-F and frozen at −20° C. The Arabidopsis targets At3g03410 (expressed from pVP14) and At3g16990 (expressed from pVP15) were flash frozen as drops in liquid nitrogen and stored at −80° C.” for “TCEP.”
as §2
(§4) Fluorescence anisotropy was measured using a Tecan 384 Ultra plate spectrofluorimeter. Excitation was at 485 nm (25 nm bandpass) and emission was measured at 525 nm (20 nm bandpass). […] The observed anisotropy is the sum of the anisotropy of the individual fluorescent components, or robs=Σfiri, where robs, is the observed anisotropy, fi is the fractional fluorescence intensity of component i, and ri is the anisotropy of component i. See J. Lakowicz, “Principles of fluorescence spectroscopy,” Kluwer Academic/Plenum Publishers, New York, 1999. […]

[4] = tested on: substrate 24-F (His6-tetraCys-X-MBP); assay: Fluorescence anisotropy proteolysis assay with substrate 24-F; conditions: initial rate by fluorescence anisotropy, normalized to the rate of the protease with its preferred cognate substrate
Description: as §1, §2, §3

[5] = tested on: substrate 23-F (His6-tetraCys-X-MBP); assay: Fluorescence anisotropy proteolysis assay with substrate 23-F; conditions: for Relative rate of reaction, substrate 23F: initial rate by fluorescence anisotropy, normalized to the rate of the protease with its preferred cognate substrate
Description: as §1, with “TCEP. Proteins were concentrated to a final concentration of 300-600 μM using centrifugal concentrators. Glycerol (50% v/v) was added to all protease substrates except 26-F and frozen at −20° C. The Arabidopsis targets At3g03410 (expressed from pVP14) and At3g16990 (expressed from pVP15) were flash frozen as drops in liquid nitrogen and stored at −80° C.” for “TCEP.”
as §2, §4

[6] = tested on: substrate 22-F (His6-tetraCys-X-MBP); assay: Fluorescence anisotropy proteolysis assay with substrate 22-F; conditions: initial rate by fluorescence anisotropy, normalized to the rate of the protease with its preferred cognate substrate
Description: as §1, §2, §3

[7] = tested on: substrate 21-F (His6-tetraCys-X-MBP); assay: Fluorescence anisotropy proteolysis assay with substrate 21-F; conditions: initial rate by fluorescence anisotropy, normalized to the rate of the protease with its preferred cognate substrate
Description: as §1, §2, §3

Row | Molecule | Relative rate of reaction, substrate 25F [1] | Proteolysis of substrate 21-F by SDS-PAGE with Coomassie staining [2] | Relative rate of reaction, substrate 26F [3] | Specific reaction rate ([3]; substrate 26-F, slope of initial rate versus protease concentration, errors two standard deviations) | Relative rate of reaction, substrate 24F [4] | Relative rate of reaction, substrate 23F [5] | Relative rate of reaction, substrate 22F [6] | Relative rate of reaction, substrate 21F [7] | Specific reaction rate ([5]; substrate 23-F, per supplier's reported activity unit)
1 | TEV: tobacco etch virus protease (protein) GESLFKGPRDYNPISSTICHLTNESDGHTTSLYGIGFGPFIITNKHLFRRNNGTLLVQSLHGVFKVKNTTTLQQHLIDGRDMIIIRMPKDFPPFPQKLKFREPQREERICLVTTNFQTKSMSSMVSDTSCTFPSSDGIFWKHWIQTKDGQCGSPLVSTRDGFIVGIHSASNFTNTNNYFTSVPKNFMELLTNQEAQQWVSGWRLNADSVLWGGHKVFMSKPEEPFQPVKEATQLMNELVYSQ | 0.0 | minor amount of proteolysis | 1 | 17.3±0.7 moles substrate proteolyzed per mole of protease per hour | −0.01 | −0.02 | 0.0 | 0.01 | 
2 | Enterokinase: commercial protease used for removing fusion tags (protein, UniProt P98072 2-800; P98072 801-1035, looked up) Enteropeptidase non-catalytic …: GSKRSVPSRHRSLTTYEVMFAVLFVILVALCAGLIAVSWLSIQGSVKDAAFGKSHEARGTLKIISGATYNPHLQDKLSVDFKVLAFDIQQMIDDIFQSSNLKNEYKNSRVLQFENGSIIVIFDLLFDQWVSDKNVKEELIQGIEANKSSQLVTFHIDLNSIDITASLENFSTISPATTSEKLTTSIPLATPGNVSIECPPDSRLCADALKCIAIDLFCDGELNCPDGSDEDNKTCATACDGRFLLTGSSGSFEALHYPKPSNNTSAVCRWIIRVNQGLSIQLNFDYFNTYYADVLNIYEGMGSSKILRASLWSNNPGIIRIFSNQVTATFLIQSDESDYIGFKVTYTAFNSKELNNYEKINCNFEDGFCFWIQDLNDDNEWERTQGSTFPPSTGPTFDHTFGNESGFYISTPTGPGGRRERVGLLTLPLDPTPEQACLSFWYYMYGENVYKLSINISSDQNMEKTIFQKEGNYGQNWNYGQVTLNETVEFKVSFYGFKNQILSDIALDDISLTYGICNVSVYPEPTLVPTPPPELPTDCGGPHDLWEPNTTFTSINFPNSYPNQAFCIWNLNAQKGKNIQLHFQEFDLENIADVVEIRDGEGDDSLFLAVYTGPGPVNDVFSTTNRMTVLFITDNMLAKQGFKANFTTGYGLGIPEPCKEDNFQCKDGECIPLVNLCDGFPHCKDGSDEAHCVRLFNGTTDSSGLVQFRIQSIWHVACAENWTTQISDDVCQLLGLGTGNSSVPTFSTGGGPYVNLNTAPNGSLILTPSQQCLEDSLILLQCNYKSCGKKLVTQEVSPK Enteropeptidase catalytic …: IVGGSDSREGAWPWVVALYFDDQQVCGASLVSRDWLVSAAHCVYGRNMEPSKWKAVLGLHMASNLTSPQIETRLIDQIVINPHYNKRRKNNDIAMMHLEMKVNYTDYIQPICLPEENQVFPPGRICSIAGWGALIYQGSTADVLQEADVPLLSNEKCQQQMPEYNITENMVCAGYEAGGVDSCQGDSGGPLMCQENNRWLLAGVTSFGYQCALPNRPGVYARVPRFTEWIQSFLH |  |  | 1 |  | 0.2 | 1 | 1.3 | 0.5 | 0.130±0.007 nmole substrate proteolyzed per unit enzyme per hour
